Biological target: monoclonal antibody M75 (MAb M75), secreted by hybridoma VU-M75, ATCC HB 11128
Assay: competition ELISA (peptide against immobilized GST-MN for M75)

B1: oligopeptide … (aa 51-72) [SEQ ID NO: 104] (peptide)
peptide: GGSSGEDDPLGEEDLPSEEDSP
  IC50: 1 ng/mL
